In article PMC11268888:

Molecular target: soluble head domain of CDV-H (canine distemper virus hemagglutinin), Kyoto Biken vaccine strain, mad (canine distemper virus (Kyoto Biken vaccine strain))
Experiment: SEC + other: non-reducing SDS-PAGE

With “soluble head domain of CDV-H (canine distemper virus hemagglutinin), Kyoto Biken vaccine strain, mad (domain or fragment)” the stoichiometry N was 2.
